± gives the standard deviation of the averaged measurements.
System: Saccharomyces cerevisiae
Assay: protein stability index of tFT-peptide fusion (C-terminal peptide) (PSI (0-1 scale)); higher = more stable (slower turnover)
Conditions: temperature: 30 C
Method: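 MPS profiling in S. cerevisiae of the yeast C-terminome library: the last 12 aa of each annotated ORF are fused to the C-terminus of a sfGFP-mCherry timer, after a GGGS linker. Cells are FACS-sorted into 8 mCherry/sfGFP bins and deep-sequenced. PSI runs from 0 (unstable) to 1 (stable); wild type and das1Δ backgrounds, two technical replicates each.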

[1] = genetic background: das1 deletion

Row | Sequence | protein stability index [1] | protein stability index (genetic background: wild type)
1 | GELSVDEKKKIY [ERV29 C-terminal 12 aa] | 0.6932 ± 0.00077 | 0.657 ± 0.041
2 | SSIQDLLSKLAN [RTT103 C-terminal 12 aa] | 0.691 ± 0.02 | 0.7927 ± 0.0052
3 | KTPNTKRRKTHK [HAS1 C-terminal 12 aa] | 0.745 ± 0.024 | 0.75 ± 0.036
4 | SFCYVSACGRTQ [YFL021C-A C-terminal 12 aa] | 0.677 ± 0.0097 | 0.709 ± 0.018
5 | QGYKPNQSDRYY [PIN2 C-terminal 12 aa] | 0.68 ± 0.013 | 0.711 ± 0.044
6 | EKKIATRGAFAC [MCO32 C-terminal 12 aa] | 0.707 ± 0.01 | 0.7 ± 0.012
7 | ALHSEEASFHSL [AIM21 C-terminal 12 aa] | 0.709 ± 0.012 | 0.7 ± 0.021
8 | IKTDSVHELLKK [MFM1 C-terminal 12 aa] | 0.704 ± 0.018 | 0.696 ± 0.0083
9 | IKALQDSLFKDV [NUP188 C-terminal 12 aa] | 0.718 ± 0.013 | 0.705 ± 0.042
10 | VYGSERDIRAKF [TES1 C-terminal 12 aa] | 0.8078 ± 0.007 | 0.816 ± 0.068
11 | QIFSLPAVTYNK [REC102 C-terminal 12 aa] | 0.693 ± 0.018 | 0.743 ± 0.055
12 | IEKNHAKFTDLT [CSH1 C-terminal 12 aa] | 0.7074 ± 0.0034 | 0.731 ± 0.017
13 | FFLEECHRIGSK [HEM12 C-terminal 12 aa] | 0.726 ± 0.015 | 0.7467 ± 0.007
14 | QLEEELMDMLDD [FCP1 C-terminal 12 aa] | 0.674 ± 0.01 | 0.6692 ± 0.0016
15 | IDLFRDAYNHEN [UPS2 C-terminal 12 aa] | 0.7353 ± 0.0064 | 0.70705 ± 3.4e-05
16 | GGFSTEFNSCDT [MLF3 C-terminal 12 aa] | 0.719 ± 0.019 | 0.721 ± 0.023
17 | LERIVGLLLMDM [MHF2 C-terminal 12 aa] | 0.6675 ± 0.0051 | 0.651 ± 0.011
18 | HLNESVYSKPLP [YIL028W C-terminal 12 aa] | 0.6938 ± 0.0028 | 0.678 ± 0.065
19 | YKKMKEMRKKRR [FCF2 C-terminal 12 aa] | 0.703 ± 0.022 | 0.71 ± 0.05
20 | LTVLCVILGYVL [UTR2 C-terminal 12 aa] | 0.5761 ± 0.00066 | 0.645 ± 0.048
21 | LEEVEVNDFIQE [SWM2 C-terminal 12 aa] | 0.7099 ± 0.0036 | 0.682 ± 0.02

Row | Sequence | protein stability index [1] | protein stability index (genetic background: wild type)
22 | KVTKAAQKAAKK [YPR080W; YBR118W C-terminal 12 aa] | 0.678 ± 0.0078 | 0.696 ± 0.012
23 | LMILGNFMPILN [ERT1 C-terminal 12 aa] | 0.6909 ± 0.0037 | 0.5655 ± 0.0049
24 | WTWLDGKFPTFA [GRE3 C-terminal 12 aa] | 0.751 ± 0.023 | 0.7093 ± 0.0009
25 | NRKIARMRHSKR [NUP1 C-terminal 12 aa] | 0.706 ± 0.022 | 0.7119 ± 0.007
26 | GGGASSIVIEKI [ERG10 C-terminal 12 aa] | 0.697 ± 0.035 | 0.694 ± 0.011
27 | IFLNDVYFNLMV [YPR126C C-terminal 12 aa] | 0.728 ± 0.016 | 0.686 ± 0.012
28 | KAFVEKLNSKKD [YBT1 C-terminal 12 aa] | 0.707 ± 0.026 | 0.683 ± 0.011
29 | SVSDPVKSEDSS [NCB2 C-terminal 12 aa] | 0.68 ± 0.034 | 0.689 ± 0.033
30 | EQAAKYIEYLNL [RAD10 C-terminal 12 aa] | 0.817 ± 0.019 | 0.603 ± 0.045
31 | AGTDKSQRCAIM [GIS4 C-terminal 12 aa] | 0.758 ± 0.018 | 0.695 ± 0.056
32 | KETFIQVWEKQE [SAD1 C-terminal 12 aa] | 0.663 ± 0.0072 | 0.651 ± 0.019
33 | IAREIFHNVTNF [SEC39 C-terminal 12 aa] | 0.724 ± 0.025 | 0.695 ± 0.037
34 | QIITISNANSHA [MBP1 C-terminal 12 aa] | 0.705 ± 0.026 | 0.688 ± 0.038
35 | GIDLNSIKWSGH [NFS1 C-terminal 12 aa] | 0.718 ± 0.012 | 0.709 ± 0.012
36 | DLDLDLFDPDDF [MED4 C-terminal 12 aa] | 0.7055 ± 0.0036 | 0.684 ± 0.044
37 | ISLVFLWVSIEV [CSM4 C-terminal 12 aa] | 0.157 ± 0.018 | 0.173 ± 0.011
38 | CIISIVVFPTCI [BIO5 C-terminal 12 aa] | 0.286 ± 0.016 | 0.285 ± 0.0088
39 | KKKAINEKAEQN [SEC62 C-terminal 12 aa] | 0.679 ± 0.018 | 0.635 ± 0.02
40 | YPAREGEVLRPN [AKR2 C-terminal 12 aa] | 0.675 ± 0.025 | 0.697 ± 0.017
41 | SIYDGTEEKIVY [DAL4 C-terminal 12 aa] | 0.689 ± 0.018 | 0.705 ± 0.01
42 | DGKSVNKYGAKK [GUS1 C-terminal 12 aa] | 0.6798 ± 0.0063 | 0.699 ± 0.029

Row | Sequence | protein stability index [1] | protein stability index (genetic background: wild type)
43 | DDNDTSAYYEDN [GSY1 C-terminal 12 aa] | 0.689 ± 0.0083 | 0.803 ± 0.073
44 | RAGRSTLKETPQ [CCT6 C-terminal 12 aa] | 0.673 ± 0.018 | 0.692 ± 0.071
45 | WEDKYPEMGVTV [YHL044W C-terminal 12 aa] | 0.6911 ± 0.003 | 0.706 ± 0.0089
46 | LSVTLGEGKYHH [CSG2 C-terminal 12 aa] | 0.685 ± 0.03 | 0.686 ± 0.034
47 | KGKSFILDSSKL [MDH3 C-terminal 12 aa] | 0.77184 ± 0.00047 | 0.733 ± 0.039
48 | TPLGQTLLDSRR [DAL1 C-terminal 12 aa] | 0.6757 ± 0.0015 | 0.67 ± 0.011
49 | ILGNYRDIFKQA [RGA2 C-terminal 12 aa] | 0.726 ± 0.014 | 0.266 ± 0.077
50 | KNNEVLLHKIKI [FAR8 C-terminal 12 aa] | 0.715 ± 0.015 | 0.669 ± 0.056
51 | REDDDEPASLDF [PRI1 C-terminal 12 aa] | 0.697 ± 0.0043 | 0.6533 ± 0.0064
52 | RTDPDRYSRLSV [ILT1 C-terminal 12 aa] | 0.703 ± 0.027 | 0.7277 ± 0.0055
53 | EHCPGVNEDDHK [CMG1 C-terminal 12 aa] | 0.703 ± 0.011 | 0.701 ± 0.026
54 | QLESDPPPCDDY [RIM8 C-terminal 12 aa] | 0.7171 ± 0.0053 | 0.689 ± 0.039
55 | TPKPVDTDDEED [NEW1 C-terminal 12 aa] | 0.685 ± 0.023 | 0.707 ± 0.035
56 | ETDSESEVESIM [SYG1 C-terminal 12 aa] | 0.697 ± 0.036 | 0.675 ± 0.025
57 | EKRFPEVMMLEK [FET4 C-terminal 12 aa] | 0.703 ± 0.026 | 0.679 ± 0.0099
58 | ITRDESTATYKY [RTT101 C-terminal 12 aa] | 0.695 ± 0.0095 | 0.6686 ± 0.0022
59 | ESPTEDSVPHAE [CSA1 C-terminal 12 aa] | 0.709 ± 0.018 | 0.687 ± 0.032
60 | DGKVIYELEDKE [GET3 C-terminal 12 aa] | 0.727 ± 0.021 | 0.6753 ± 0.0058
61 | WVRLPTTSHGLD [SPO73 C-terminal 12 aa] | 0.71917 ± 0.00042 | 0.733 ± 0.016

Source: the supplement of paper PMC10724198
